Legend:
[1] = biological target: human CLDN18.2 on cells (human) (UniProt P56856); experiment: flow cytometry on hCLDN18.2-expressing HEK293 cells
[2] = biological target: human CLDN18.2 on cells (human) (UniProt P56856); experiment: flow cytometry on SNU601 cells

IC50 [1]: 0.701 µg/mL
IC50 [2]: 0.811 µg/mL
B1: m-anti-human CLDN18.2-13 monoclonal antibody (antibody, mouse IgG2a, kappa, V domains shown)
VH: QLQLQQSGTELVRPGSSVKISCKASGYAFSNYWMNWVKQRPGQGLEWIGQIYPGNGDTKYNGNFKGKATLTADKSSSTAYMQLSSLTSEDSADYFCARYYRGNCFDYWGQGTTLTVSS
VL: DIVLTQSPSSLTVTAGEKVTMSCKSSQSLLNSGNQKNYLTWYQQKPGQPPKLLIYWASTRDSGVPARFTGSGSGTDFTLTINSVQAEDLAVYYCQNAYTYPLTFGAGTKLEIKR

Reference: patent publication US20240117035A1
